In patent publication US20110151450:
Changes are numbered by the printed parent chain.

How the values were obtained:
Assay in all cases: cleavage_in_vitro
[1] = system: T1, ApoI-HF T77A/T96A (Arthrobacter protophormiae); settings: NEB4, relative activity 50%
T1 sequence: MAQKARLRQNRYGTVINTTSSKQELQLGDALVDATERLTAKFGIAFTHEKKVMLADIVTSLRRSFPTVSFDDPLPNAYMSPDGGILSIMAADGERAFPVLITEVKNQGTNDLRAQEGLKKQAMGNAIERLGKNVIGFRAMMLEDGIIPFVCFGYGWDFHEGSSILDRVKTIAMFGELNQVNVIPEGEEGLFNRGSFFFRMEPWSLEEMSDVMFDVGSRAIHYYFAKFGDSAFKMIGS

[2] = biological target: T2, BglII-HF N208A (Bacillus globigii) (UniProt Q45488); settings: NEB4, relative activity 25%
T2 sequence: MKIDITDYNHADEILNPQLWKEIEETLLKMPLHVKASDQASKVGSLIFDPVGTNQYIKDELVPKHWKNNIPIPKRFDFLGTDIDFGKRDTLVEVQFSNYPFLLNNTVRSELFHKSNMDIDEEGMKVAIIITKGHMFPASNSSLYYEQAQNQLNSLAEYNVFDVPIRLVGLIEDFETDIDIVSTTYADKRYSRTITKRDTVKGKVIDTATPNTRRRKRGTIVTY

[3] = system: T3, BmtI-HF S50A (Bacillus megaterium); settings: NEB4, relative activity 100%
T3 sequence: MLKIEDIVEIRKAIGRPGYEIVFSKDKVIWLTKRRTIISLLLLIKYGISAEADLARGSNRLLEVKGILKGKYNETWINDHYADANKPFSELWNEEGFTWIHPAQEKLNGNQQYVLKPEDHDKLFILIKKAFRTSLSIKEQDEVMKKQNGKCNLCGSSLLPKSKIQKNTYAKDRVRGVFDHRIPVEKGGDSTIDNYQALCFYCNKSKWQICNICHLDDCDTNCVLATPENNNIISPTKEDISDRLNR

[4] = system: T4, BmtI-WT (Bacillus megaterium); settings: NEB4, relative activity 100%
T4 sequence: T3 sequence with A50S

[5] = system: T5, BsaWI-HF Q261A (Bacillus stearothermophilus); settings: NEB4, relative activity 100%
T5 sequence: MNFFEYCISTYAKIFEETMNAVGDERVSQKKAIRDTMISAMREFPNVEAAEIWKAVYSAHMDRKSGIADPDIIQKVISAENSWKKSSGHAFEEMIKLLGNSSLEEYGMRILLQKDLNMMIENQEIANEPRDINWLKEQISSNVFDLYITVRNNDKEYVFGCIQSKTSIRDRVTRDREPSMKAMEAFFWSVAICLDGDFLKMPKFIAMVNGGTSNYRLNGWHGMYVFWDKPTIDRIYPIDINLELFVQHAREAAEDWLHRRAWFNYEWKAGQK

[6] = system: T6, PmeI-HF E86A (Pseudomonas mendocina); settings: NEB4, relative activity 100%
T6 sequence: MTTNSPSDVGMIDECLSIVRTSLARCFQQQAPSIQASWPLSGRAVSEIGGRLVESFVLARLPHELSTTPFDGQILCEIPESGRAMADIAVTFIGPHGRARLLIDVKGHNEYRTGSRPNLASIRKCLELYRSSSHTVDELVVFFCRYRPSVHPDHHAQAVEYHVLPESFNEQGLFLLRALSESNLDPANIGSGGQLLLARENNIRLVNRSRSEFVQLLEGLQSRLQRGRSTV

[7] = system: T7, PmeI-WT (Pseudomonas mendocina); settings: NEB4, relative activity 25%
T7 sequence: T6 sequence with A86E

[8] = system: T8, PvuI-WT (Proteus vulgaris); settings: NEB4, relative activity 12.5%
T8 sequence: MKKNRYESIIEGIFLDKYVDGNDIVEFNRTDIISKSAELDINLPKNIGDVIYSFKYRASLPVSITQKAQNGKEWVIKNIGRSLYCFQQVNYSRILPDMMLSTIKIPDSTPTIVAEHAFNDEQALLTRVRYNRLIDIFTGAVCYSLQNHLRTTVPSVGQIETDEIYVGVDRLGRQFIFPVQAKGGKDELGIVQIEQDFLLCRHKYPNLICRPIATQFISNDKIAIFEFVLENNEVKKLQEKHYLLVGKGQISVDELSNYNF

[9] = biological target: T9, SmaI-WT (Serratia marcescens) (UniProt P14229); settings: NEB4, relative activity 100%
T9 sequence: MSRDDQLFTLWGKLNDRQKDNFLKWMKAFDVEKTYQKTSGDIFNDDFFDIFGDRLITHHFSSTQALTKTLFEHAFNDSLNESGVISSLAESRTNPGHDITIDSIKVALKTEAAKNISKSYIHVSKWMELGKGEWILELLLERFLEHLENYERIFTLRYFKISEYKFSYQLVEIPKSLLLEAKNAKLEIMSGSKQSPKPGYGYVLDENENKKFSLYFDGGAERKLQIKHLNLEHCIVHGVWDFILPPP

[10] = system: T10, SpeI-HF P65A (Sphaerotilus natans); settings: NEB4, relative activity 100%
T10 sequence: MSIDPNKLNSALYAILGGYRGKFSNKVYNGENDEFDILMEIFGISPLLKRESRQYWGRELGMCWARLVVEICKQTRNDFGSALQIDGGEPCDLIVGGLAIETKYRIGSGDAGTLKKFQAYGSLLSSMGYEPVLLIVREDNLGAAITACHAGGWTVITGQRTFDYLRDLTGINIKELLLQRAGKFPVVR

[11] = system: T11, SpeI-WT (Sphaerotilus natans); settings: NEB4, relative activity 50%
T11 sequence: T10 sequence with A65P

Substance pXba plasmid has an activity (fidelity index) [1] of over 2000, an activity (fidelity index) [2] of over 32000 and an activity (fidelity index) [3] of over 1e+06. It also gave an activity (fidelity index) [4] of 16, an activity (fidelity index) [5] of over 4000 and an activity (fidelity index) [6] of over 8000. For the same substance, the activity (fidelity index) [7] was 64, the activity (fidelity index) [8] was 32 and the activity (fidelity index) [9] was 64. For the same substance, the activity (fidelity index) [10] was over 8000 and the activity (fidelity index) [11] was 500.
